Laboratory results: article PMC7611088

Target: human β3 homopentameric GABAAR construct (K279T, M3-M4 loop replaced by SQPARAA) (human) (UniProt P28472)
Assay: cryo-EM structure

- stoichiometry N: 5
Substance: human β3 homopentameric GABAAR construct (K279T, M3-M4 loop replaced by SQPARAA) (from UniProt P28472 26-473) (receptor)
